Values joined by “and” are separate entries in the source; they are usually repeats but may differ in a detail not shown here. Identical values can stand only once. Like-named read-outs stand apart in the source and are kept apart here. Each block holds one binder with its values, some of them ahead of it.
How the values were obtained:
Cynomolgus OSM [1] = biological target: T1, Cynomolgus OSM (cynomolgus, UniProt A0A2K5VPC6 26-221); experiment: BIAcore kinetics, purified antibody
T1 construct: also called Cyno OSM; cynomolgus macaque OSM
T1 sequence: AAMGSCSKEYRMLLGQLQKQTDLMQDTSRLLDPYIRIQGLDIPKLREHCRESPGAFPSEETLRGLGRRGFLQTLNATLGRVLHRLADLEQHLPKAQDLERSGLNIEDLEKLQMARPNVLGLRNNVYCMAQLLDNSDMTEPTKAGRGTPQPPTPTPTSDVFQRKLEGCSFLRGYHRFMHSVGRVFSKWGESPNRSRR

Human OSM [2] = biological target: T2, Human OSM (human, UniProt P13725 26-221); experiment: BIAcore kinetics, purified antibody
T2 construct: Recombinant human OSM; also called hOSM; human Oncostatin M
T2 sequence: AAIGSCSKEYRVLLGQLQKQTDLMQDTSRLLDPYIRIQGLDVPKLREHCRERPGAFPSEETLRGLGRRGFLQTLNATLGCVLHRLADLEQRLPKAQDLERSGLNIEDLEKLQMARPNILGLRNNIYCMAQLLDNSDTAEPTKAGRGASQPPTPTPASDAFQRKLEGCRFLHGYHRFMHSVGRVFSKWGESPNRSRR

Marmoset OSM = Marmoset OSM (marmoset); experiment: cell-based or functional assay
Cynomolgus OSM [3] = biological target: T1, Cynomolgus OSM; experiment: cell-based or functional assay
Human OSM [4] = biological target: T2, Human OSM; experiment: cell-based or functional assay
Cynomolgus OSM [5] = biological target: T1, Cynomolgus OSM; experiment: cell-based or functional assay; remark: listed apart in the source
Human OSM [6] = biological target: T2, Human OSM; experiment: cell-based or functional assay; remark: listed apart in the source
Cynomolgus OSM [7] = biological target: T1, Cynomolgus OSM; experiment: BIAcore kinetics, purified antibody; remark: listed apart in the source
Human OSM [8] = biological target: T2, Human OSM; experiment: BIAcore kinetics, purified antibody; remark: listed apart in the source
Cynomolgus OSM [9] = biological target: T1, Cynomolgus OSM; experiment: BIAcore kinetics, purified antibody; remark: listed apart in the source
Human OSM [10] = biological target: T2, Human OSM; experiment: BIAcore kinetics, purified antibody; remark: listed apart in the source
Human OSM [11] = biological target: T2, Human OSM; experiment: BIAcore kinetics, transfection supernatant
Cynomolgus OSM [12] = biological target: T1, Cynomolgus OSM; experiment: cell-based or functional assay; remark: listed apart in the source
Human OSM [13] = biological target: T2, Human OSM; experiment: cell-based or functional assay; remark: listed apart in the source
[14] = biological target: T3, Endogenous human OSM (neutrophil-derived) (human, UniProt P13725 26-221, limits assumed); experiment: gp130 ELISA with endogenous neutrophil-derived human OSM
T3 construct: Native OSM generated from GM-CSF stimulation of healthy human neutrophils; also called native OSM; endogenous OSM
T3 sequence: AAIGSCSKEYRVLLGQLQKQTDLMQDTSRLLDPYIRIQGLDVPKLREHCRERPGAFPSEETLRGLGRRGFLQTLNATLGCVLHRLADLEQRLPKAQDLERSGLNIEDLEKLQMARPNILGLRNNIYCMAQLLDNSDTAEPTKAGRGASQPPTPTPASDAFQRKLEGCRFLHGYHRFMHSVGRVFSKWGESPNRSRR

Cynomolgus OSM [15] = biological target: T1, Cynomolgus OSM; experiment: BIAcore kinetics, transfection supernatant
Human OSM [16] = biological target: T2, Human OSM; experiment: BIAcore kinetics, transfection supernatant; remark: listed apart in the source

Kd (Cynomolgus OSM [1]): 0.195 nM | koff (Cynomolgus OSM [1]): 8.31e-05 s⁻¹ | kon (Cynomolgus OSM [1]): 427000 M⁻¹ s⁻¹ | Kd (Human OSM [2]): 0.125 nM | koff (Human OSM [2]): 8.9e-05 s⁻¹ | kon (Human OSM [2]): 712000 M⁻¹ s⁻¹ | KB cell neutralisation assay, mean IC50 (Marmoset OSM): 0.0017 µg/ml and 11 pM | KB cell neutralisation assay, mean IC50 (Cynomolgus OSM [3]): 0.0014 µg/ml and 9 pM | KB cell neutralisation assay, mean IC50 (Human OSM [4]): 0.0028 µg/ml and 19 pM | KB cell neutralisation assay, mean IC50 (Cynomolgus OSM [5]): 0.007 µg/ml and 21 pM | KB cell neutralisation assay, mean IC50 (Human OSM [6]): 0.015 µg/ml and 102 pM | Kd (Cynomolgus OSM [7]): 0.251 nM | koff (Cynomolgus OSM [7]): 0.000107 s⁻¹ | kon (Cynomolgus OSM [7]): 426000 M⁻¹ s⁻¹ | Kd (Human OSM [8]): 0.355 nM | koff (Human OSM [8]): 0.000137 s⁻¹ | kon (Human OSM [8]): 387000 M⁻¹ s⁻¹ | Kd (Cynomolgus OSM [9]): 0.341 nM | koff (Cynomolgus OSM [9]): 0.000115 s⁻¹ | kon (Cynomolgus OSM [9]): 338000 M⁻¹ s⁻¹ | Kd (Human OSM [10]): 0.445 nM | koff (Human OSM [10]): 0.000151 s⁻¹ | kon (Human OSM [10]): 340000 M⁻¹ s⁻¹ | Kd (Human OSM [11]): 0.25 nM | koff (Human OSM [11]): 9.95e-05 s⁻¹ | kon (Human OSM [11]): 398000 M⁻¹ s⁻¹ | KB cell neutralisation assay, mean IC50 (Cynomolgus OSM [12]): 0.007 µg/ml and 47 pM | KB cell neutralisation assay, mean IC50 (Human OSM [13]): 0.009 µg/ml and 60 pM | IC50 [14]: 0.0058 µg/mL and 0.039 nM | Kd (Cynomolgus OSM [15]): 0.301 nM | koff (Cynomolgus OSM [15]): 0.000104 s⁻¹ | kon (Cynomolgus OSM [15]): 345000 M⁻¹ s⁻¹ | Kd (Human OSM [16]): 0.461 nM | koff (Human OSM [16]): 0.000153 s⁻¹ | kon (Human OSM [16]): 332000 M⁻¹ s⁻¹
B1: Humanised 10G8 H0L1 (antibody, human IgG1, kappa, V domains shown)
VH: EVQLVESGGGLVQPGGSLRLSCAASGFTFSNYAMSWVRQAPGKGLEWVATISDGGSFTYYLDNVRGRFTISRDNAKNSLYLQMNSLRAEDTAVYYCARDVGHTTFWYFDVWGRGTLVTVSS
VL: DIVMTQSPDSLAVSLGERATINCRASKSVSAAGYNFMHWYQQKPGQPPKVLIYYASNLESGVPDRFSGSGSGTDFTLTISSLQAEDVAVYYCLHSREFPFTFGGGTKVEIKR
notes: IgG1 kappa; mature H0 heavy chain and mature L1 light chain; also called Humanised 10G8 H0L1 parent

KB cell neutralisation assay, mean IC50 (Cynomolgus OSM [12]): 0.114 µg/ml and 760 pM | KB cell neutralisation assay, mean IC50 (Human OSM [13]): 0.077 µg/ml and 513 pM | Kd (Cynomolgus OSM [15]): 1.47 nM | koff (Cynomolgus OSM [15]): 0.000223 s⁻¹ | kon (Cynomolgus OSM [15]): 152000 M⁻¹ s⁻¹ | Kd (Human OSM [16]): 1.56 nM | koff (Human OSM [16]): 0.000247 s⁻¹ | kon (Human OSM [16]): 159000 M⁻¹ s⁻¹
B2: Humanised 10G8 H0(IGHV3-23)L1(IGK4-1) (antibody, V domains shown)
VH: EVQLVESGGGLVQPGGSLRLSCAASGFTFSSYAMSWVRQAPGKGLEWVATISDGGSFTYYLDNVRGRFTISRDNAKNSLYLQMNSLRAEDTAVYYCARDVGHTTFWYFDVWGRGTLVTVSS
VL: DIVMTQSPDSLAVSLGERATINCRASKSVSAAGYNFMHWYQQKPGQPPKVLIYWASTRESGVPDRFSGSGSGTDFTLTISSLQAEDVAVYYCLHSREFPFTFGGGTKVEIK
notes: built from the stated exchange of CDRL2; residue limits derived by me; also called H0 IGHV3_23 + L1 IGKV4_1; H0(huCDRH1)L1(huCDRL2)

KB cell neutralisation assay, mean IC50 (Cynomolgus OSM [12]): 0.081 µg/ml and 540 pM | KB cell neutralisation assay, mean IC50 (Human OSM [13]): 0.054 µg/ml and 360 pM | Kd (Cynomolgus OSM [15]): 1.41 nM | koff (Cynomolgus OSM [15]): 0.000212 s⁻¹ | kon (Cynomolgus OSM [15]): 150000 M⁻¹ s⁻¹ | Kd (Human OSM [16]): 1.37 nM | koff (Human OSM [16]): 0.000221 s⁻¹ | kon (Human OSM [16]): 161000 M⁻¹ s⁻¹
B3: Humanised 10G8 H0L1(IGKV4-1) (antibody, V domains shown)
VH: EVQLVESGGGLVQPGGSLRLSCAASGFTFSNYAMSWVRQAPGKGLEWVATISDGGSFTYYLDNVRGRFTISRDNAKNSLYLQMNSLRAEDTAVYYCARDVGHTTFWYFDVWGRGTLVTVSS
VL: DIVMTQSPDSLAVSLGERATINCRASKSVSAAGYNFMHWYQQKPGQPPKVLIYWASTRESGVPDRFSGSGSGTDFTLTISSLQAEDVAVYYCLHSREFPFTFGGGTKVEIK
notes: built from the stated exchange of CDRL2; residue limits derived by me; Human gamma 1/kappa constant regions; also called H0L1(huCDRL2)
